Source: patent US20110166062A1 (INDIANA UNIVERSITY RESEARCH AND TECHNOLOGY, published 2011)
Bridges are numbered along the chain shown (N, C = ends). Where no end group is shown, it is not given here. [ ]: non-standard residue; d: D form. Aib = CC(C)(N)C(=O)O

T1: GIP receptor (UniProt P48546 22-466)
T1 sequence (looked up): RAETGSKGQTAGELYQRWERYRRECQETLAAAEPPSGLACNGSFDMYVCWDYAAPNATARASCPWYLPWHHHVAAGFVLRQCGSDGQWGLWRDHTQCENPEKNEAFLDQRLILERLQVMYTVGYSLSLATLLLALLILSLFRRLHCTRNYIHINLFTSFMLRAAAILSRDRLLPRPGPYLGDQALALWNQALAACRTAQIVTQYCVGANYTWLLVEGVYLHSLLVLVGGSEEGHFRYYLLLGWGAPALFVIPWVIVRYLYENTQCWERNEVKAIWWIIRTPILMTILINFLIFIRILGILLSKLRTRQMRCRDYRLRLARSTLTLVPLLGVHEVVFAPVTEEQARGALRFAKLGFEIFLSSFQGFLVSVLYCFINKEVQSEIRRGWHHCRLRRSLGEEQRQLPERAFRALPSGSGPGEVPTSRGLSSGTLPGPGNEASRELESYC


What was measured:
Assay in all cases: cell-based or functional assay
GIP receptor = target: T1, GIP receptor
glucagon receptor = glucagon receptor (UniProt P47871 26-477, limits assumed)
GLP-1 receptor = GLP-1 receptor (UniProt P43220 24-463, limits assumed)

glucagon receptor, sequence (P47871 26-477 limits assumed): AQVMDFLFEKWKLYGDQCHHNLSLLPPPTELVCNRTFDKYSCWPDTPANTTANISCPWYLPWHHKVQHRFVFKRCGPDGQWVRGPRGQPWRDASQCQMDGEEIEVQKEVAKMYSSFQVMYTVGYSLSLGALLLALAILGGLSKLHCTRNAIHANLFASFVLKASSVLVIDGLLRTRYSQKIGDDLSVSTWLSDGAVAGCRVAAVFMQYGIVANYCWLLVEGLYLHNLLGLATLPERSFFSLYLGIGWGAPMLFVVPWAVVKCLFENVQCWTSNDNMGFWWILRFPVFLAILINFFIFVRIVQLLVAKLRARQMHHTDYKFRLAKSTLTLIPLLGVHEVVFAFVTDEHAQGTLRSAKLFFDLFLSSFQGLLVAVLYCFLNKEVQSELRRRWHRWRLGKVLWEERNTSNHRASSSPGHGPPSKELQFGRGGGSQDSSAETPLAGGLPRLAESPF

Binder	EC50 (GIP receptor) [nM]	relative activity (GIP receptor) [%]	EC50 (glucagon receptor) [nM]	relative activity (glucagon receptor) [%]	EC50 (GLP-1 receptor) [nM]	relative activity (GLP-1 receptor) [%]
Y[Aib]QGTFTSDYSIYLDEQAAKEFVNWLLAG-NH2 (lactam 16-20; N-terminus assumed; SMILES CC[C@H](C)[C@H](NC(=O)[C@H](CO)NC(=O)[C@H](Cc1ccc(O)cc1)NC(=O)[C@H](CC(=O)O)NC(=O)[C@H](CO)NC(=O)[C@@H](NC(=O)[C@H](Cc1ccccc1)NC(=O)[C@@H](NC(=O)CNC(=O)[C@H](CCC(N)=O)NC(=O)C(C)(C)NC(=O)[C@@H](N)Cc1ccc(O)cc1)[C@@H](C)O)[C@@H](C)O)C(=O)N[C@@H](Cc1ccc(O)cc1)C(=O)N[C@@H](CC(C)C)C(=O)N[C@@H](CC(=O)O)C(=O)N[C@H]1CCC(=O)NCCCC[C@@H](C(=O)N[C@@H](CCC(=O)O)C(=O)N[C@@H](Cc2ccccc2)C(=O)N[C@H](C(=O)N[C@@H](CC(N)=O)C(=O)N[C@@H](Cc2c[nH]c3ccccc23)C(=O)N[C@@H](CC(C)C)C(=O)N[C@@H](CC(C)C)C(=O)N[C@@H](C)C(=O)NCC(N)=O)C(C)C)NC(=O)[C@H](C)NC(=O)[C@H](C)NC(=O)[C@H](CCC(N)=O)NC1=O) [mt-164]	0.164	16.5	0.151	110	0.046	56.5
YSQGTFTSDYSIYLDEQAAKEFVEWLLKGGPSSGAPPPS-NH2 (lactam 24-28; N-terminus assumed; SMILES CC[C@H](C)[C@H](NC(=O)[C@H](CO)NC(=O)[C@H](Cc1ccc(O)cc1)NC(=O)[C@H](CC(=O)O)NC(=O)[C@H](CO)NC(=O)[C@@H](NC(=O)[C@H](Cc1ccccc1)NC(=O)[C@@H](NC(=O)CNC(=O)[C@H](CCC(N)=O)NC(=O)[C@H](CO)NC(=O)[C@@H](N)Cc1ccc(O)cc1)[C@@H](C)O)[C@@H](C)O)C(=O)N[C@@H](Cc1ccc(O)cc1)C(=O)N[C@@H](CC(C)C)C(=O)N[C@@H](CC(=O)O)C(=O)N[C@@H](CCC(=O)O)C(=O)N[C@@H](CCC(N)=O)C(=O)N[C@@H](C)C(=O)N[C@@H](C)C(=O)N[C@@H](CCCCN)C(=O)N[C@@H](CCC(=O)O)C(=O)N[C@@H](Cc1ccccc1)C(=O)N[C@H](C(=O)N[C@H]1CCC(=O)NCCCC[C@@H](C(=O)NCC(=O)NCC(=O)N2CCC[C@H]2C(=O)N[C@@H](CO)C(=O)N[C@@H](CO)C(=O)NCC(=O)N[C@@H](C)C(=O)N2CCC[C@H]2C(=O)N2CCC[C@H]2C(=O)N2CCC[C@H]2C(=O)N[C@@H](CO)C(N)=O)NC(=O)[C@H](CC(C)C)NC(=O)[C@H](CC(C)C)NC(=O)[C@H](Cc2c[nH]c3ccccc23)NC1=O)C(C)C) [mt-157]	1.01	4	2.62	6.92	0.081	37
Y[Aib]QGTFTSDYSYYLDEQAVKEFVNWLIAGGPSSGAPPPS-NH2 (lactam 16-20; N-terminus assumed; SMILES CC[C@H](C)[C@H](NC(=O)[C@H](CC(C)C)NC(=O)[C@H](Cc1c[nH]c2ccccc12)NC(=O)[C@H](CC(N)=O)NC(=O)[C@@H](NC(=O)[C@H](Cc1ccccc1)NC(=O)[C@H](CCC(=O)O)NC(=O)[C@@H]1CCCCNC(=O)CC[C@H](NC(=O)[C@H](CC(=O)O)NC(=O)[C@H](CC(C)C)NC(=O)[C@H](Cc2ccc(O)cc2)NC(=O)[C@H](Cc2ccc(O)cc2)NC(=O)[C@H](CO)NC(=O)[C@H](Cc2ccc(O)cc2)NC(=O)[C@H](CC(=O)O)NC(=O)[C@H](CO)NC(=O)[C@@H](NC(=O)[C@H](Cc2ccccc2)NC(=O)[C@@H](NC(=O)CNC(=O)[C@H](CCC(N)=O)NC(=O)C(C)(C)NC(=O)[C@@H](N)Cc2ccc(O)cc2)[C@@H](C)O)[C@@H](C)O)C(=O)N[C@@H](CCC(N)=O)C(=O)N[C@@H](C)C(=O)N[C@@H](C(C)C)C(=O)N1)C(C)C)C(=O)N[C@@H](C)C(=O)NCC(=O)NCC(=O)N1CCC[C@H]1C(=O)N[C@@H](CO)C(=O)N[C@@H](CO)C(=O)NCC(=O)N[C@@H](C)C(=O)N1CCC[C@H]1C(=O)N1CCC[C@H]1C(=O)N1CCC[C@H]1C(=O)N[C@@H](CO)C(N)=O) [mt-162]	0.136	25.7	7	0.97	0.011	109
YSQGTFTSDYSIYLDEQAAKEFVNWLLAG-NH2 (lactam 16-20; N-terminus assumed; SMILES CC[C@H](C)[C@H](NC(=O)[C@H](CO)NC(=O)[C@H](Cc1ccc(O)cc1)NC(=O)[C@H](CC(=O)O)NC(=O)[C@H](CO)NC(=O)[C@@H](NC(=O)[C@H](Cc1ccccc1)NC(=O)[C@@H](NC(=O)CNC(=O)[C@H](CCC(N)=O)NC(=O)[C@H](CO)NC(=O)[C@@H](N)Cc1ccc(O)cc1)[C@@H](C)O)[C@@H](C)O)C(=O)N[C@@H](Cc1ccc(O)cc1)C(=O)N[C@@H](CC(C)C)C(=O)N[C@@H](CC(=O)O)C(=O)N[C@H]1CCC(=O)NCCCC[C@@H](C(=O)N[C@@H](CCC(=O)O)C(=O)N[C@@H](Cc2ccccc2)C(=O)N[C@H](C(=O)N[C@@H](CC(N)=O)C(=O)N[C@@H](Cc2c[nH]c3ccccc23)C(=O)N[C@@H](CC(C)C)C(=O)N[C@@H](CC(C)C)C(=O)N[C@@H](C)C(=O)NCC(N)=O)C(C)C)NC(=O)[C@H](C)NC(=O)[C@H](C)NC(=O)[C@H](CCC(N)=O)NC1=O) [mt-163]	0.74	4.73	0.027	252	0.04	30
Y[Aib]QGTFTSDYSIYLDEQAAKEFVCWLLAGGPSSGAPPPS-NH2 (lactam 16-20; N-terminus assumed; SMILES CC[C@H](C)[C@H](NC(=O)[C@H](CO)NC(=O)[C@H](Cc1ccc(O)cc1)NC(=O)[C@H](CC(=O)O)NC(=O)[C@H](CO)NC(=O)[C@@H](NC(=O)[C@H](Cc1ccccc1)NC(=O)[C@@H](NC(=O)CNC(=O)[C@H](CCC(N)=O)NC(=O)C(C)(C)NC(=O)[C@@H](N)Cc1ccc(O)cc1)[C@@H](C)O)[C@@H](C)O)C(=O)N[C@@H](Cc1ccc(O)cc1)C(=O)N[C@@H](CC(C)C)C(=O)N[C@@H](CC(=O)O)C(=O)N[C@H]1CCC(=O)NCCCC[C@@H](C(=O)N[C@@H](CCC(=O)O)C(=O)N[C@@H](Cc2ccccc2)C(=O)N[C@H](C(=O)N[C@@H](CS)C(=O)N[C@@H](Cc2c[nH]c3ccccc23)C(=O)N[C@@H](CC(C)C)C(=O)N[C@@H](CC(C)C)C(=O)N[C@@H](C)C(=O)NCC(=O)NCC(=O)N2CCC[C@H]2C(=O)N[C@@H](CO)C(=O)N[C@@H](CO)C(=O)NCC(=O)N[C@@H](C)C(=O)N2CCC[C@H]2C(=O)N2CCC[C@H]2C(=O)N2CCC[C@H]2C(=O)N[C@@H](CO)C(N)=O)C(C)C)NC(=O)[C@H](C)NC(=O)[C@H](C)NC(=O)[C@H](CCC(N)=O)NC1=O) [mt-158]	0.174	17.8	1.05	14.9	0.034	103
YSQGTFTSDYSIYLDEQAAKEFVEWLLAGGPSSGAPPPS-NH2 (lactam 20-24; N-terminus assumed; SMILES CC[C@H](C)[C@H](NC(=O)[C@H](CO)NC(=O)[C@H](Cc1ccc(O)cc1)NC(=O)[C@H](CC(=O)O)NC(=O)[C@H](CO)NC(=O)[C@@H](NC(=O)[C@H](Cc1ccccc1)NC(=O)[C@@H](NC(=O)CNC(=O)[C@H](CCC(N)=O)NC(=O)[C@H](CO)NC(=O)[C@@H](N)Cc1ccc(O)cc1)[C@@H](C)O)[C@@H](C)O)C(=O)N[C@@H](Cc1ccc(O)cc1)C(=O)N[C@@H](CC(C)C)C(=O)N[C@@H](CC(=O)O)C(=O)N[C@@H](CCC(=O)O)C(=O)N[C@@H](CCC(N)=O)C(=O)N[C@@H](C)C(=O)N[C@@H](C)C(=O)N[C@H]1CCCCNC(=O)CC[C@@H](C(=O)N[C@@H](Cc2c[nH]c3ccccc23)C(=O)N[C@@H](CC(C)C)C(=O)N[C@@H](CC(C)C)C(=O)N[C@@H](C)C(=O)NCC(=O)NCC(=O)N2CCC[C@H]2C(=O)N[C@@H](CO)C(=O)N[C@@H](CO)C(=O)NCC(=O)N[C@@H](C)C(=O)N2CCC[C@H]2C(=O)N2CCC[C@H]2C(=O)N2CCC[C@H]2C(=O)N[C@@H](CO)C(N)=O)NC(=O)[C@H](C(C)C)NC(=O)[C@H](Cc2ccccc2)NC(=O)[C@H](CCC(=O)O)NC1=O) [mt-156]	0.919	4.41	2.96	6.1	0.246	12.2
